Source: article PMC2783852 (Archives of biochemistry and biophysics, 2009)

Target: the molecule itself
Assay: SEC

B1: recombinant human apomanganese superoxide dismutase (enzyme, UniProt P04179 25-222, looked up)
chain: KHSLPDLPYDYGALEPHINAQIMQLHHSKHHAAYVNNLNVTEEKYQEALAKGDVTAQIALQPALKFNGGGHINHSIFWTNLSPNGGGEPKGELLEAIKRDFGSFDKFKEKLTAASVGVQGSGWGWLGFNKERGHLQIAACPNQDPLQGTTGLIPLLGIDVWEHAYYLQYKNVRPDYLKAIWNVINWENVTERYMACKK
- stoichiometry N: 4
